The values that follow come from article PMC12329598.

Assay [1] concerns the target 1-442 Rap1GAP1a-RlucII, P47736-1. In words: ebBRET (Rap1GAP1a-RlucII recruitment to rGFP-CaaX at the plasma membrane). Particulars: A293 cells with μ-opioid receptor, 48 h post-transfection, read off a plot.
Assay [2] has the same target. The experiment in a line: ebBRET (agonist-induced net BRET, Rap1GAP1a-RlucII recruitment to the plasma membrane). Particulars: 10 μM DAMGO; parent: est. 0.22; read off a plot. In general terms: Bioluminescence resonance energy transfer reports proximity on the nanometre scale.
Assay [3] has the same target. In words: ebBRET (Rap1GAP1a-RlucII recruitment to the plasma membrane). Particulars: A293 cells, parent: est. 0.17, read off a plot.
The mark [4] stands for this setting: double mutant in Gαo(Q205L) background, Gαo(Q205L) bar in same panel est. 0.39.

Sequence of 1-442 Rap1GAP1a-RlucII, P47736-1 (P47736 1-442 S437A/S439A/S441A): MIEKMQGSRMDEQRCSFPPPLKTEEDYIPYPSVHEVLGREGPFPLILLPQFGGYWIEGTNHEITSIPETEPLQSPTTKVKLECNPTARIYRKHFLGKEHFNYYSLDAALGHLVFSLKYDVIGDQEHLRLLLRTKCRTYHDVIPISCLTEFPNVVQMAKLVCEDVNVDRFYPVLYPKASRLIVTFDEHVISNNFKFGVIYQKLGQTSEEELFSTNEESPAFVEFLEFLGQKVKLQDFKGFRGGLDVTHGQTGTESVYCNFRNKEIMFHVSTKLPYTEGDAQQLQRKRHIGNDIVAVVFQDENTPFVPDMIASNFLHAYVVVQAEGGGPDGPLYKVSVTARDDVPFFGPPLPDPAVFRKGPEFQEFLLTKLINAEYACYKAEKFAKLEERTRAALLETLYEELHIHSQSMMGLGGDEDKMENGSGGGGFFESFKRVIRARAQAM

As to HA-Gαo^(WT) (from UniProt P09471) E246G, the response was 0.06 BRET ratio in assay [1] (10 μM DAMGO, parent: est. 0.32); 0.035 BRET ratio in assay [1] (vehicle, parent: est. 0.12); 0.03 Net BRET in assay [2].

Regarding HA-Gαo^(WT) (from UniProt P09471) G203E, the response worked out at 0.08 BRET ratio in assay [1] (10 μM DAMGO, parent: est. 0.32); 0.035 BRET ratio in assay [1] (vehicle, parent: est. 0.12); 0.04 Net BRET in assay [2]. For the substance “HA-Gαo^(WT) (from UniProt P09471) Q205L; E237K”, the response in assay [3] (setting [4]) came to 0.14 BRET ratio. As for “HA-Gαo^(WT) (from UniProt P09471) Q205L; R209H”, the response in assay [3] (setting [4]) was 0.04 BRET ratio.

As to HA-Gαo^(WT) (from UniProt P09471) N242T, the response in assay [1] (10 μM DAMGO, parent: est. 0.32) worked out at 0.3 BRET ratio; in assay [1] (vehicle, parent: est. 0.12) it was 0.07 BRET ratio; in assay [2], 0.23 Net BRET. Turning to HA-Gαo^(WT) (from UniProt P09471) R209H, the response turned out to be 0.045 BRET ratio in assay [1] (10 μM DAMGO, parent: est. 0.32); 0.035 BRET ratio in assay [1] (vehicle, parent: est. 0.12); 0.015 Net BRET in assay [2]. With “HA-Gαo^(WT) (from UniProt P09471) Q205L; R209C”, the response in assay [3] (setting [4]) amounted to 0.035 BRET ratio.

For HA-Gαo^(WT) (from UniProt P09471) E237K, the response came to 0.11 BRET ratio in assay [1] (10 μM DAMGO, parent: est. 0.32); 0.04 BRET ratio in assay [1] (vehicle, parent: est. 0.12); 0.07 Net BRET in assay [2]. “HA-Gαo^(WT) (from UniProt P09471) Q205L; E246G”: the response in assay [3] (setting [4]) is 0.08 BRET ratio.

Consider “HA-Gαo^(WT) (from UniProt P09471) Q205L; A221D”, for which, in assay [3] (setting [4]), the response is 0.37 BRET ratio. On the same count and under the same terms, with “HA-Gαo^(WT) (from UniProt P09471) Q205L; N242T” the figure was 0.41 BRET ratio.

“HA-Gαo^(WT) (from UniProt P09471) Q205L; G203E”: in assay [3] (setting [4]), the response came to 0.085 BRET ratio.

With HA-Gαo^(WT) (from UniProt P09471) R209C, the response in assay [1] (10 μM DAMGO, parent: est. 0.32) was determined as 0.04 BRET ratio; in assay [1] (vehicle, parent: est. 0.12), 0.03 BRET ratio; in assay [2], 0.012 Net BRET. On to HA-Gαo^(WT) (from UniProt P09471) Q205L, for which the response in assay [3] (no-Gαo control bar est. 0.07) amounted to 0.39 BRET ratio. On to HA-Gαo^(WT) (from UniProt P09471) A221D, for which the response in assay [1] (10 μM DAMGO, parent: est. 0.32) worked out at 0.18 BRET ratio; in assay [1] (vehicle, parent: est. 0.12), 0.04 BRET ratio; in assay [2], 0.14 Net BRET.
